Assay results published in the PETadex activity labels (doi:10.1002/anie.202203061).

What was measured:
PET [1] = test: Proxy for plastic degradation [Released monomer concentration (HPLC/LC-MS) (TPA)]
PET [2] = test: Proxy for plastic degradation [Released monomer concentration (HPLC/LC-MS) (MHET)]
[3] = Melting temperature [DSF / Thermofluor]; settings: pH 7.5; part of the chain shown

B1: unnamed (protein)
chain: MNKSILEKIAVGTSALLFSVSAFSFTPSPTPDPDPEPQPCQGECDFTRGPAPSSSYLEASSGPYSVNTVNVSRSVSGFGGGTIHYPTNTTGTMGAIAIVPGFLAGESSIAWWGPRLASHGFVVITIATNSTFDQPASRETQLGRALDYVISQSNSNSSDISGMVDSTRVGAMGWSMGGGGALRIASGSRLSAAIPLAPWHTGSNDFDEIDTPTMIIACENDSTAPVRSHASPFYNSIPSTTDKALLEINNGSHSCANGGGSNGGLLGKYGVSWMKRFIDEDTRYSQFLCGPNHASNSAISEYRETCDY
- Proxy for plastic degradation (PET [1]; 30 °C): 20 µM
- Proxy for plastic degradation (PET [1]; 37 °C): 20 µM
- Proxy for plastic degradation (PET [1]; 45 °C): 20 µM
- Proxy for plastic degradation (PET [1]; 55 °C): 20 µM
- Proxy for plastic degradation (PET [1]; 65 °C): 20 µM
- Proxy for plastic degradation (PET [2]; 30 °C): 3 µM
- Proxy for plastic degradation (PET [2]; 37 °C): 2 µM
- Proxy for plastic degradation (PET [2]; 45 °C): 2 µM
- Proxy for plastic degradation (PET [2]; 55 °C): 1 µM
- Proxy for plastic degradation (PET [2]; 65 °C): 1 µM

B2: unnamed (protein)
chain: MNFPRASRLMQAAVLGGLMAVSAAATAQTNPYARGPNPTAASLEASAGPFTVRSFTVSRPSGYGAGTVYYPTNAGGTVGAIAIVPGYTARQSSIKWWGPRLASHGFVVITIDTNSTLDQPSSRSSQQMAALRQVASLNGTSSSPIYGKVDTARMGVMGWSMGGGGSLISAANNPSLKAAAPQAPWDSSTNFSSVTVPTLIFACENDSIAPVNSSALPIYDSMSRNAKQFLEINGGSHSCANSGNSNQALIGKKGVAWMKRFMDNDTRYSTFACENPNSTRVSDFRTANCS
- Melting temperature [3]: 42 °C
- Proxy for plastic degradation (PET [1]; 30 °C, part of the chain shown): 30 µM
- Proxy for plastic degradation (PET [1]; 37 °C, part of the chain shown): 25 µM
- Proxy for plastic degradation (PET [1]; 45 °C, part of the chain shown): 20 µM
- Proxy for plastic degradation (PET [1]; 55 °C, part of the chain shown): 20 µM
- Proxy for plastic degradation (PET [1]; 65 °C, part of the chain shown): 10 µM
- Proxy for plastic degradation (PET [2]; 30 °C, part of the chain shown): 3 µM
- Proxy for plastic degradation (PET [2]; 37 °C, part of the chain shown): 2 µM
- Proxy for plastic degradation (PET [2]; 45 °C, part of the chain shown): 2 µM
- Proxy for plastic degradation (PET [2]; 55 °C, part of the chain shown): 1 µM
- Proxy for plastic degradation (PET [2]; 65 °C, part of the chain shown): 1 µM
